# Results taken from US20020160957A1.
# No end group written: not given here. *: point of attachment. 125I = [125I]*
# Molecular target: cell surface binding site for EMAP II N-terminal peptides on human mononuclear phagocytes (MPs); ≈73 kDa MP surface polypeptide
# Experiment: radioligand binding on human MPs, 4 C, one-site model
binder,measurement,value
RIGRIVTAKY(125I) [^125I-…],Kd,0.19 nM
same,N (molecules of peptide bound per cell) (molecules of peptide bound per cell),8300
